Laboratory results taken from the Human Domainome abundance scans (Beltran et al. 2025).
± gives the uncertainty stated by the source.

B1: Histone-lysine N-methyltransferase 2A, residues 1148 to 1194; numbered along this chain, Q03164 (parent)
chain: KGRRSRRCGQCPGCQVPEDCGVCTNCLDKPKFGGRNIKKQCCKMRKC

Variants of: B1
Test: abundance fitness (aPCA) (normalised: wild type 0, dead -1); higher = more abundant; growth selection in yeast, the domain comes from the species named
Details: Homo sapiens

KGRRSRRCGQCPGCQVPEDCGVCTNCLDKPKFGGRNIKKQCCKERKC and KGRRSRRCGQCPGCQVPEDCGVCTNCLDKPKFGGRNIKKQCCKTRKC are within error of each other in abundance fitness: 0.003 ± 0.2 for the first, -0.283 ± 0.1 for the second.

KGRRSRRCGQCPGCQVPEDCGVCTNCLDKPKFGGRNIKKQCCKSRKC and KGRRSRRCGQCPGCQVPEDCGVCTNCLDKPKFGGRNIKKQCCKHRKC are within error of each other in abundance fitness: -0.335 ± 0.099 for the first, -0.181 ± 0.15 for the second.

Going from KGRRSRRCGQCPGCQVPEDCGVCTNCLDKPKFGGRNIKKQCCKARKC to KGRRSRRCGQCPGCQVPEDCGVCTNCLDKPKFGGRNIKKQCCKCRKC, the abundance fitness falls from -0.012 ± 0.086 to -0.484 ± 0.1.

KGRRSRRCGQCPGCQVPEDCGVCTNCLDKPKFGGRNIKKQCCKYRKC and KGRRSRRCGQCPGCQVPEDCGVCTNCLDKPKFGGRNIKKQCCKVRKC are within error of each other in abundance fitness: -0.205 ± 0.16 for the first, -0.213 ± 0.1 for the second.

KGRRSRRCGQCPGCQVPEDCGVCTNCLDKPKFGGRNIKKQCCKDRKC and KGRRSRRCGQCPGCQVPEDCGVCTNCLDKPKFGGRNIKKQCCKGRKC are within error of each other in abundance fitness: -0.242 ± 0.13 for the first, -0.251 ± 0.079 for the second.

KGRRSRRCGQCPGCQVPEDCGVCTNCLDKPKFGGRNIKKQCCKIRKC and KGRRSRRCGQCPGCQVPEDCGVCTNCLDKPKFGGRNIKKQCCKNRKC are within error of each other in abundance fitness: -0.021 ± 0.14 for the first, -0.253 ± 0.21 for the second.

KGRRSRRCGQCPGCQVPEDCGVCTNCLDKPKFGGRNIKKQCCKKRKC and KGRRSRRCGQCPGCQVPEDCGVCTNCLDKPKFGGRNIKKQCCKRRKC are within error of each other in abundance fitness: -0.037 ± 0.12 for the first, -0.023 ± 0.076 for the second.

KGRRSRRCGQCPGCQVPEDCGVCTNCLDKPKFGGRNIKKQCCKQRKC and KGRRSRRCGQCPGCQVPEDCGVCTNCLDKPKFGGRNIKKQCCKWRKC are within error of each other in abundance fitness: 0.037 ± 0.14 for the first, -0.151 ± 0.095 for the second.

Compared with KGRRSRRCGQCPGCQVPEDCGVCTNCLDKPKFGGRNIKKQCCKPRKC, KGRRSRRCGQCPGCQVPEDCGVCTNCLDKPKFGGRNIKKQCCKMMKC is higher in abundance fitness: -0.659 ± 0.16 for the first, -0.308 ± 0.12 for the second.

KGRRSRRCGQCPGCQVPEDCGVCTNCLDKPKFGGRNIKKQCCKMLKC and KGRRSRRCGQCPGCQVPEDCGVCTNCLDKPKFGGRNIKKQCCKMIKC are within error of each other in abundance fitness: -0.527 ± 0.093 for the first, -0.439 ± 0.17 for the second.

KGRRSRRCGQCPGCQVPEDCGVCTNCLDKPKFGGRNIKKQCCKMSKC and KGRRSRRCGQCPGCQVPEDCGVCTNCLDKPKFGGRNIKKQCCKMDKC are within error of each other in abundance fitness: -0.349 ± 0.092 for the first, -0.411 ± 0.17 for the second.

KGRRSRRCGQCPGCQVPEDCGVCTNCLDKPKFGGRNIKKQCCKMTKC and KGRRSRRCGQCPGCQVPEDCGVCTNCLDKPKFGGRNIKKQCCKMAKC are within error of each other in abundance fitness: -0.597 ± 0.12 for the first, -0.659 ± 0.11 for the second.

KGRRSRRCGQCPGCQVPEDCGVCTNCLDKPKFGGRNIKKQCCKMPKC and KGRRSRRCGQCPGCQVPEDCGVCTNCLDKPKFGGRNIKKQCCKMVKC are within error of each other in abundance fitness: -0.67 ± 0.14 for the first, -0.492 ± 0.11 for the second.

KGRRSRRCGQCPGCQVPEDCGVCTNCLDKPKFGGRNIKKQCCKMYKC and KGRRSRRCGQCPGCQVPEDCGVCTNCLDKPKFGGRNIKKQCCKMWKC are within error of each other in abundance fitness: -0.735 ± 0.18 for the first, -0.662 ± 0.11 for the second.

KGRRSRRCGQCPGCQVPEDCGVCTNCLDKPKFGGRNIKKQCCKMHKC and KGRRSRRCGQCPGCQVPEDCGVCTNCLDKPKFGGRNIKKQCCKMQKC are within error of each other in abundance fitness: -0.737 ± 0.21 for the first, -0.52 ± 0.13 for the second.

KGRRSRRCGQCPGCQVPEDCGVCTNCLDKPKFGGRNIKKQCCKMGKC and KGRRSRRCGQCPGCQVPEDCGVCTNCLDKPKFGGRNIKKQCCKMEKC are within error of each other in abundance fitness: -0.429 ± 0.093 for the first, -0.682 ± 0.23 for the second.

KGRRSRRCGQCPGCQVPEDCGVCTNCLDKPKFGGRNIKKQCCKMKKC and KGRRSRRCGQCPGCQVPEDCGVCTNCLDKPKFGGRNIKKQCCKMRKT are within error of each other in abundance fitness: -0.529 ± 0.23 for the first, -0.884 ± 0.36 for the second.

KGRRSRRCGQCPGCQVPEDCGVCTNCLDKPKFGGRNIKKQCCKMRKP and KGRRSRRCGQCPGCQVPEDCGVCTNCLDKPKFGGRNIKKQCCKMRKF are within error of each other in abundance fitness: -0.789 ± 0.2 for the first, -0.52 ± 0.16 for the second.

Compared with KGRRSRRCGQCPGCQVPEDCGVCTNCLDKPKFGGRNIKKQCCKMRKS, KGRRSRRCGQCPGCQVPEDCGVCTNCLDKPKFGGRNIKKQCCKMRKR is lower in abundance fitness: -0.619 ± 0.13 for the first, -0.925 ± 0.15 for the second.

KGRRSRRCGQCPGCQVPEDCGVCTNCLDKPKFGGRNIKKQCCKMRKY and KGRRSRRCGQCPGCQVPEDCGVCTNCLDKPKFGGRNIKKQCCKMRKA are within error of each other in abundance fitness: -0.967 ± 0.16 for the first, -0.695 ± 0.42 for the second.

KGRRSRRCGQCPGCQVPEDCGVCTNCLDKPKFGGRNIKKQCCKMRKD and KGRRSRRCGQCPGCQVPEDCGVCTNCLDKPKFGGRNIKKQCCKMRKW are within error of each other in abundance fitness: -0.347 ± 0.43 for the first, -0.527 ± 0.48 for the second.

KGRRSRRCGQCPGCQVPEDCGVCTNCLDKPKFGGRNIKKQCCKMRMC and KGRRSRRCGQCPGCQVPEDCGVCTNCLDKPKFGGRNIKKQCCKMRVC are within error of each other in abundance fitness: 0.074 ± 0.15 for the first, 0.039 ± 0.14 for the second.

KGRRSRRCGQCPGCQVPEDCGVCTNCLDKPKFGGRNIKKQCCKMRHC and KGRRSRRCGQCPGCQVPEDCGVCTNCLDKPKFGGRNIKKQCCKMRGC are within error of each other in abundance fitness: -0.02 ± 0.18 for the first, -0.145 ± 0.14 for the second.

KGRRSRRCGQCPGCQVPEDCGVCTNCLDKPKFGGRNIKKQCCKMRWC and KGRRSRRCGQCPGCQVPEDCGVCTNCLDKPKFGGRNIKKQCCKMRYC are within error of each other in abundance fitness: -0.31 ± 0.14 for the first, -0.128 ± 0.16 for the second.
